50 sequences from the supplement of paper PMC10724198 can be followed below.

± gives the standard deviation of the averaged measurements.

This data set concerns Saccharomyces cerevisiae. The data set can be described thus: protein stability index of tFT-peptide fusion (C-terminal peptide) (PSI (0-1 scale)); higher = more stable (slower turnover). Conditions: temperature: 30 C. The method, then: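 MPS profiling in S. cerevisiae of the yeast C-terminome library: the last 12 aa of each annotated ORF are fused to the C-terminus of a sfGFP-mCherry timer, after a GGGS linker. Cells are FACS-sorted into 8 mCherry/sfGFP bins and deep-sequenced. PSI runs from 0 (unstable) to 1 (stable); wild type and das1Δ backgrounds, two technical replicates each.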

Setting [1] is: genetic background: das1 deletion.

Consider “RFYFLSIFKYII [YBR191W-A C-terminal 12 aa]”, for which the protein stability index is 0.633 ± 0.023 under setting [1] and 0.331 ± 0.02 (genetic background: wild type).
In the case of RGRIAAQKRISA [RPL17B C-terminal 12 aa], the protein stability index worked out at 0.681 ± 0.014 under setting [1] and 0.663 ± 0.016 (genetic background: wild type).
Sequence RHAASLLGMSTK [VPS17 C-terminal 12 aa] displayed a protein stability index under setting [1] of 0.714 ± 0.0089 and a protein stability index (genetic background: wild type) of 0.762 ± 0.03.
In turn, RHCARVKRSSRL [LYS1 C-terminal 12 aa] came in with a protein stability index under setting [1] of 0.778 ± 0.024 and a protein stability index (genetic background: wild type) of 0.823 ± 0.046.
On to RKEVIDALVSLS [AIM46 C-terminal 12 aa], for which the protein stability index by setting is: under setting [1], 0.7011 ± 0.0026; (genetic background: wild type) 0.6881 ± 0.0046.
Turning to RKFFSMRSLNSR [CHL1 C-terminal 12 aa], the protein stability index under setting [1] came out at 0.696 ± 0.014 and the protein stability index (genetic background: wild type) came to 0.6589 ± 0.0015.
Turning to RKLFLVVKDNIL [JIP3 C-terminal 12 aa], the protein stability index is 0.695 ± 0.016 under setting [1] and 0.734 ± 0.015 (genetic background: wild type).
The sequence RKNNKKSISYYG [YOR203W C-terminal 12 aa] returned a protein stability index under setting [1] of 0.706 ± 0.011 and a protein stability index (genetic background: wild type) of 0.731 ± 0.0063.
Turning to RKRKQSKSGLLL [NOP8 C-terminal 12 aa], the protein stability index is, setting by setting: under setting [1], 0.723 ± 0.024; (genetic background: wild type) 0.699 ± 0.01.
With RKRLRTLDNWYR [RNH201 C-terminal 12 aa], the protein stability index is, setting by setting: under setting [1], 0.7355 ± 0.0016; (genetic background: wild type) 0.7169 ± 0.0049.
Regarding RLDKATKALEGF [NBA1 C-terminal 12 aa], the protein stability index under setting [1] is 0.6942 ± 0.0018 and the protein stability index (genetic background: wild type) is 0.702 ± 0.033.
In the same order, the values of RLGNLENIKIPK [AIM4 C-terminal 12 aa] are 0.737 ± 0.0074 and 0.696 ± 0.038.
The sequence RLLSLWEVFQMA [RPC82 C-terminal 12 aa] returned a protein stability index under setting [1] of 0.646 ± 0.027 and a protein stability index (genetic background: wild type) of 0.6182 ± 0.0037.
In turn, RLNNWLFGWNDL [NUP53 C-terminal 12 aa] registered a protein stability index under setting [1] of 0.785 ± 0.012 and a protein stability index (genetic background: wild type) of 0.707 ± 0.0094.
As for RLQAMLNSSSSI [CEF1 C-terminal 12 aa], the protein stability index reads like this: under setting [1], 0.681 ± 0.015; (genetic background: wild type) 0.669 ± 0.008.
In the same order, the values of RLRAKSPYAWDD [YHK8 C-terminal 12 aa] are 0.729 ± 0.0089 and 0.721 ± 0.053.
With RLTSRSGSANRA [SAC7 C-terminal 12 aa], the protein stability index runs as follows: under setting [1], 0.706 ± 0.028; (genetic background: wild type) 0.65006 ± 5.7e-05.
Consider RLVRNVELSKEK [MTD1 C-terminal 12 aa], for which the protein stability index by setting is: under setting [1], 0.708 ± 0.028; (genetic background: wild type) 0.718 ± 0.062.
As for RLWSRKEFRLGT [SNU71 C-terminal 12 aa], the protein stability index under setting [1] was 0.7 ± 0.017 and the protein stability index (genetic background: wild type) was 0.7 ± 0.029.
Consider RMVDKVEGSFSR [YDR109C C-terminal 12 aa], for which the protein stability index under setting [1] stood at 0.7218 ± 0.0071 and the protein stability index (genetic background: wild type) amounted to 0.701 ± 0.028.
Consider RPVLSEEQRKNC [YDR344C C-terminal 12 aa], for which the protein stability index was 0.668 ± 0.0083 under setting [1] and 0.6794 ± 0.0048 (genetic background: wild type).
In the same order, the values of RQTKAFISKFMT [DBR1 C-terminal 12 aa] are 0.7208 ± 0.0027 and 0.682 ± 0.05.
As to RRKKKLMDELNL [ISY1 C-terminal 12 aa], the protein stability index turned out to be 0.703 ± 0.04 under setting [1] and 0.669 ± 0.017 (genetic background: wild type).
On the same counts, the results for RRSFFSVFRSEK [AKL1 C-terminal 12 aa] are 0.68 ± 0.019 and 0.746 ± 0.049.
Regarding RSHRKQPLKRKD [BRE5 C-terminal 12 aa], the protein stability index is, setting by setting: under setting [1], 0.69 ± 0.025; (genetic background: wild type) 0.645 ± 0.019.
With RTHAMLNDIQNI [BNR1 C-terminal 12 aa], the protein stability index by setting is: under setting [1], 0.72 ± 0.022; (genetic background: wild type) 0.721 ± 0.091.
RVKSLKVGRKSQ [PAL1 C-terminal 12 aa]: the protein stability index turned out to be 0.688 ± 0.02 under setting [1] and 0.684 ± 0.0082 (genetic background: wild type).
On to RVLNNLIVSHNK [MOT3 C-terminal 12 aa], for which the protein stability index was 0.7102 ± 0.003 under setting [1] and 0.735 ± 0.078 (genetic background: wild type).
For RVSLEKEAKQHG [ERV2 C-terminal 12 aa], the protein stability index reads like this: under setting [1], 0.715 ± 0.025; (genetic background: wild type) 0.673 ± 0.0072.
In turn, RWFKKKKETGGS [BUD2 C-terminal 12 aa] returned a protein stability index under setting [1] of 0.698 ± 0.0098 and a protein stability index (genetic background: wild type) of 0.71919 ± 0.00068.
Turning to RYRLEKVIGKRW [SPO20 C-terminal 12 aa], the protein stability index runs as follows: under setting [1], 0.704 ± 0.03; (genetic background: wild type) 0.676 ± 0.022.
On the same counts, the results for SAIYLLIFRSTR [YPR177C C-terminal 12 aa] are 0.56459 ± 0.00029 and 0.569 ± 0.018.
Sequence SAMTSKVLSFFL [RRT7 C-terminal 12 aa] displayed a protein stability index under setting [1] of 0.7094 ± 0.0069 and a protein stability index (genetic background: wild type) of 0.696 ± 0.019.
In the same order, the values of SCAKDILGEENF [BRE4 C-terminal 12 aa] are 0.687 ± 0.0079 and 0.661 ± 0.04.
On the same counts, the results for SDAVAEANDIDD [TOM20 C-terminal 12 aa] are 0.673 ± 0.051 and 0.72 ± 0.047.
For SDEGHAHEDCAK [LOG1 C-terminal 12 aa], the protein stability index is 0.679 ± 0.011 under setting [1] and 0.669 ± 0.015 (genetic background: wild type).
Take SFSRIDCCLPDE [TDA5 C-terminal 12 aa]: the protein stability index was 0.72 ± 0.013 under setting [1] and 0.707 ± 0.051 (genetic background: wild type).
In the same order, the values of SGDIVAVIETLA [DUR12 C-terminal 12 aa] are 0.51 ± 0.033 and 0.571 ± 0.049.
Consider SGFQFPFFGEEK [MRPL7 C-terminal 12 aa], for which the protein stability index is 0.717 ± 0.014 under setting [1] and 0.695 ± 0.037 (genetic background: wild type).
Take SGSRVVRKLFEL [FUS2 C-terminal 12 aa]: the protein stability index was 0.6964 ± 0.0031 under setting [1] and 0.7 ± 0.016 (genetic background: wild type).
On the same counts, the results for “SGSVYIGSVFLI [YGR121W-A C-terminal 12 aa]” are 0.692 ± 0.029 and 0.6421 ± 0.0012.
On to “SGWSAKIPVSMI [YCR045W-A C-terminal 12 aa]”, for which the protein stability index reads like this: under setting [1], 0.704 ± 0.014; (genetic background: wild type) 0.698 ± 0.0077.
SGYDYFDVSVSG [YAT1 C-terminal 12 aa]: the protein stability index was 0.71 ± 0.022 under setting [1] and 0.712 ± 0.015 (genetic background: wild type).
With SHKGFFQKLGCC [YCK1 C-terminal 12 aa], the protein stability index by setting is: under setting [1], 0.692 ± 0.0098; (genetic background: wild type) 0.677 ± 0.01.
Consider SIDKWFFISGSV [IPP1 C-terminal 12 aa], for which the protein stability index under setting [1] was determined as 0.726 ± 0.013 and the protein stability index (genetic background: wild type) was 0.709 ± 0.0086.
Take SIHIDDFENENN [YGL036W C-terminal 12 aa]: the protein stability index was 0.7059 ± 0.0061 under setting [1] and 0.675 ± 0.023 (genetic background: wild type).
The sequence SINGVNLELIKD [MIX14 C-terminal 12 aa] displayed a protein stability index under setting [1] of 0.691 ± 0.041 and a protein stability index (genetic background: wild type) of 0.635 ± 0.016.
In the same order, the values of SKFTGRKRRHRF [BUD23 C-terminal 12 aa] are 0.67693 ± 0.00035 and 0.711 ± 0.05.
SLDKMAQQLGVE [YKR005C C-terminal 12 aa] showed a protein stability index under setting [1] of 0.698 ± 0.016 and a protein stability index (genetic background: wild type) of 0.677 ± 0.036.
With SLEAVSKMDKLA [AAT1 C-terminal 12 aa], the protein stability index by setting is: under setting [1], 0.723 ± 0.012; (genetic background: wild type) 0.679 ± 0.014.
